Where a chain is given by its changes, count along the chain named. Numbers in names are those of the source. One block for each binder: values may come before it.
Legend:
[1] = molecular target: T1, biotinylated PD-L2 (SinoBiologics, Cat. No. 10292-H08H-B) (UniProt Q9BQ51 20-219, biotinylated); test: ELISA, S03 coated in 4-fold dilutions up to 0.1 ug/ml, biotinylated PD-L2 0.1 ug/ml, avidin-HRP
T1 construct: Bought antigen
T1 sequence (looked up): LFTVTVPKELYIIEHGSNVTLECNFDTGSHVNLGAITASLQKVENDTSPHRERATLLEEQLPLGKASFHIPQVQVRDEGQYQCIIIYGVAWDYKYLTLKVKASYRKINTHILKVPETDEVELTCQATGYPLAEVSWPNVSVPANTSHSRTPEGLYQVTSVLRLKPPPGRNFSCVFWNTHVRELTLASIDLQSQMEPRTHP

[2] = molecular target: T2, PD-L1 antigen (SinoBiologics, Cat. No. 10084-H08H) (human, UniProt Q9NZQ7 19-238); test: dual antigen ELISA: PD-L1 coated, S03 titrated, detected with biotinylated 4-1BB and avidin-HRP (signal needs both antigens)
T2 construct: Bought antigen; also called human PD-L1

[3] = molecular target: T2, PD-L1 antigen (SinoBiologics, Cat. No. …); test: SPR, Biacore T200; variant captured on CM5, PD-L1 antigen injected
Description: (§1) Affinity to 4-1BB was determined using the bispecific epitope binding protein variants diluted to 5 μg/ml and then fixed to CM5 chip (Cytiva, BR-1005-30) with human capture (Cytiva, Cat. No. BR-1008-39). The 4-1BB antigen (abclon) was injected at concentrations of 100, 50, 25, 12.5, 6.25, and 3.125 nM, the association time was set to 150 seconds, and the dissociation time was set to 240 seconds. Biacore T200 (cytiva) was used as the analysis equipment.
(§2) Affinity to PD-L1 was determined using the bispecific epitope binding protein variants diluted to 10 μg/ml and then fixed to CM5 chip with human capture.

[4] = molecular target: T2, PD-L1 antigen (SinoBiologics, Cat. No. …); test: SPR, Biacore T200; comparison of S03 with human PD-1-Fc
[5] = molecular target: T2, PD-L1 antigen (SinoBiologics, Cat. No. …); test: SPR, Biacore T200; S03 captured on CM5, PD-L1 antigen injected (same values as Table 2)
Description: as §1, §2

[6] = molecular target: T3, biotinylated C1q (comp Tech, Cat. No. A099) protein (UniProt P02745 23-245; P02746 28-253; P02747 29-245, biotinylated (chain not stated)); test: C1q ELISA, S03 coated at 75 nM, biotinylated C1q titrated in 2-fold steps from 2 ug/ml, avidin-HRP
T3 construct: Bought C1q, biotinylated with a kit

[7] = molecular target: T4, 4-1BB antigen (abclon) (UniProt Q07011 24-186); test: SPR, Biacore T200; variant captured on CM5, 4-1BB antigen injected
T4 construct: Bought antigen
Description: as §1

[8] = molecular target: T2, PD-L1 antigen (SinoBiologics, Cat. No. …); test: SPR, Biacore T200; S03 captured on CM5, PD-L1 antigen injected (same values as Table 2); Table 3, comparison with natural PD1-Fc
[9] = molecular target: T2, PD-L1 antigen (SinoBiologics, Cat. No. …); test: ELISA, PD-L1 antigen coated, anti-human IgG Fc-HRP detection, 11 points

T2 sequence (Q9NZQ7 19-238 limits assumed): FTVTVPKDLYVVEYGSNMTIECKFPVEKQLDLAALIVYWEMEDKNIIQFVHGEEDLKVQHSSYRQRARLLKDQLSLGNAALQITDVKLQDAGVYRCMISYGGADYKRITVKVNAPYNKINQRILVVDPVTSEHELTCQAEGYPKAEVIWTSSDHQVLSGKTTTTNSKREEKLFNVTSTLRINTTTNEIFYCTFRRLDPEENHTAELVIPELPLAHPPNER
T4 sequence (Q07011 24-186): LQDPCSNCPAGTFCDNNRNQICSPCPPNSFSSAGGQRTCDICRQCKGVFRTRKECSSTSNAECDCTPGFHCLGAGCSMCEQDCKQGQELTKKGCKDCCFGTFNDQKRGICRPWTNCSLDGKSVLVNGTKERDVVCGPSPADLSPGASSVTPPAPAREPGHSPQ
T3 sequence (P02745 23-245, chain 1 of 3): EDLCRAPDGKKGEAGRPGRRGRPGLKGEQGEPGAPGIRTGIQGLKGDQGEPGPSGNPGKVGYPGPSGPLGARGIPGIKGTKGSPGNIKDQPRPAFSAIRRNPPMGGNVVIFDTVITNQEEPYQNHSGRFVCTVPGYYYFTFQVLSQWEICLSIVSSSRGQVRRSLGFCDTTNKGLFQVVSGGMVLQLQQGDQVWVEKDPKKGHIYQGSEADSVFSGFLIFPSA
T3 sequence (P02746 28-253, chain 2 of 3): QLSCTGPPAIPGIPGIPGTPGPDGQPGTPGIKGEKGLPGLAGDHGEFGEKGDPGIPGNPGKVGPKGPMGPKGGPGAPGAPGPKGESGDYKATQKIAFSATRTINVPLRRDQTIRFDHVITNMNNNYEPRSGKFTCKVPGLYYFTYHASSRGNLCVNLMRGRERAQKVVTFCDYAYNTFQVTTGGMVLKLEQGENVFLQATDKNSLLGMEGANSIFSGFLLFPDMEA
T3 sequence (P02747 29-245, chain 3 of 3): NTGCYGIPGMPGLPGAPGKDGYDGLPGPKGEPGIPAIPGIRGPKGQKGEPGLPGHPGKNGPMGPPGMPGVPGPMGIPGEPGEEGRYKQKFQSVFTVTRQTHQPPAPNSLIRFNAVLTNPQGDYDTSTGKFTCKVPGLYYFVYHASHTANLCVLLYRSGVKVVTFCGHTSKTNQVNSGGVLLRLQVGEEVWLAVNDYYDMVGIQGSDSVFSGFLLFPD

EC50 (read off the curve) [2]: ~0.05 µg/mL
Kd [3]: 5.07 nM
koff [3]: 0.00115 s⁻¹
kon [3]: 227000 M⁻¹ s⁻¹
fold stronger binding than natural PD-1 (human PD-1-Fc) [4]: ~93 fold
Kd [5]: 5.07 nM
koff [5]: 0.00115 s⁻¹
binding result [6]: no binding (tested: 2 ug/ml C1q)
Kd [7]: 3.05 nM
koff [7]: 0.000634 s⁻¹
kon [7]: 208000 M⁻¹ s⁻¹
kon [8]: 227000 M⁻¹ s⁻¹
B1: bispecific epitope binding protein S03 (bispecific antibody)
chain: DIVMTQSPAFLSVTPGEKVTITCRASQTISDYLHWYQQKPDQAPKLLIKYASQSISGIPSRFSGSGSGTDFTFTISSLEAEDAATYYCQDGHSWPPTFGQGTKLEIKGSTSGSGKPGSGEGSTKGQVQLVQSGAEVKKPGASVKLSCKASGYTFSSYWMHWVRQAPGQGLEWIGEINPGNGHTNYNEKFKSRVTMTRDTSTSTAYMELSSLRSEDTAVYYCARSFKTARAFAYWGQGTLVTVSSASGGGGSGGGGSDKTHTCPPCPAPEAAGGPSVFLFPPKPKDTLMISRTPEVTCVVVDVSHEDPEVKFNWYVDGVEVHNAKTKPREEQYNSTYRVVSVLTVLHQDWLNGKEYKCAVSNKALPAPIEKTISKAKGQPREPQVYTLPPSREEMTKNQVSLTCLVKGFYPSDIAVEWESNGQPENNYKTTPPVLDSDGSFFLYSKLTVDKSRWQQGNVFSCSVMHEALHNHYTQKSLSLSPGGGGGSGGGGSFLESPDRPWNAPTFSPALLLVAEGDNATFTCSFSNASESFHVVWHRESPSGQTDTLAAFPEDRSQPGQDHRFRVTRLPNGRDFHMSVVRAQRNDSGTYVCGVISLAPKIQIKESLRAELRVTERRAEVPTAHPSPSPRPAGQFQTLVVG
notes: Anti-4-1BB 94kvt scFv x euPD-1 with hinge and engineered IgG1 Fc (L234A, L235A, K322A, D356E, L358M)
binding result [1]: no binding (tested: log10 2.0 ng/mL (100 ng/mL coated))

B2: S13 (PD-L1 null variant of S03) (bispecific antibody)
chain: B1 chain with T547A, I595A, I603A
binding result [9]: no binding (tested: log 1.7 ug/mL as drawn (about 50 ug/mL))

Kd [3]: 4.06 nM
koff [3]: 0.00132 s⁻¹
kon [3]: 324000 M⁻¹ s⁻¹
Kd [7]: 3.67 nM
koff [7]: 0.000658 s⁻¹
kon [7]: 179000 M⁻¹ s⁻¹
B3: bispecific epitope binding protein S02 (bispecific antibody)
chain: QVQLVQSGAEVKKPGASVKLSCKASGYTFSSYWMHWVRQAPGQGLEWIGEINPGNGHTNYNEKFKSRVTMTRDTSTSTAYMELSSLRSEDTAVYYCARSFKTARAFAYWGQGTLVTVSSGSTSGSGKPGSGEGSTKGDIVMTQSPAFLSVTPGEKVTITCRASQTISDYLHWYQQKPDQAPKLLIKYASQSISGIPSRFSGSGSGTDFTFTISSLEAEDAATYYCQDGHSWPPTFGQGTKLEIKASGGGGSGGGGSDKTHTCPPCPAPEAAGGPSVFLFPPKPKDTLMISRTPEVTCVVVDVSHEDPEVKFNWYVDGVEVHNAKTKPREEQYNSTYRVVSVLTVLHQDWLNGKEYKCAVSNKALPAPIEKTISKAKGQPREPQVYTLPPSREEMTKNQVSLTCLVKGFYPSDIAVEWESNGQPENNYKTTPPVLDSDGSFFLYSKLTVDKSRWQQGNVFSCSVMHEALHNHYTQKSLSLSPGGGGGSGGGGSFLESPDRPWNAPTFSPALLLVAEGDNATFTCSFSNASESFHVVWHRESPSGQTDTLAAFPEDRSQPGQDHRFRVTRLPNGRDFHMSVVRAQRNDSGTYVCGVISLAPKIQIKESLRAELRVTERRAEVPTAHPSPSPRPAGQFQTLVVGGGGGSGGGGSGGGGSFLESPDRPWNAPTFSPALLLVAEGDNATFTCSFSNASESFHVVWHRESPSGQTDTLAAFPEDRSQPGQDHRFRVTRLPNGRDFHMSVVRAQRNDSGTYVCGVISLAPKIQIKESLRAELRVTERRAEVPTAHPSPSPRPAGQFQTLVVG
notes: Anti-4-1BB 94kvt scFv x euPD-1 with hinge and engineered IgG1 Fc
